Target: Mitogen-Activated Protein Kinase-Activated Protein Kinase 2 (human) (UniProt P49137)
Assay: cell-based or functional assay

Substance: MMI-0100 (peptide)
- IC50 (radiometric kinase activity assay): 22 µM
